Earlier results on two substances are cited in patent US12419862B2, “Use of a cathepsin s inhibitor against the formation of anti-drug antibodies” (Hoffmann-La Roche Inc., priority 2018, dated 2025).

Bounds are passed on as bounds.

The conditions of this data set: current standard of care in IBD; cited from earlier work.

With adalimumab, the reported immunogenicity rates is listed as ≤ 26%.

“infliximab: anti-TNFalpha antibody, known to be highly immunogenic”: the reported immunogenicity rates entry is given as “up to 51%”.
